Among the data in the Human Domainome abundance scans (Beltran et al. 2025) are abundance fitness values, retold here.

The chains are these.
B1: Death-inducer obliterator 1, residues 263 to 321; numbered along this chain, Q9BTC0 (parent)
chain: GYDPNALYCICRQPHNNRFMICCDRCEEWFHGDCVGISEARGRLLERNGEDYICPNCTI

± gives the uncertainty stated by the source.

In the data set the parent is B1. In words: abundance fitness (aPCA) (normalised: wild type 0, dead -1); higher = more abundant; growth selection in yeast, the domain comes from the species named. As to conditions: Homo sapiens.
On to GYDPNALYCIRRQPHNNRFMICCDRCEEWFHGDCVGISEARGRLLERNGEDYICPNCTI [C11R], for which the abundance fitness was -0.861 ± 0.087.
Consider GYDPNALYCISRQPHNNRFMICCDRCEEWFHGDCVGISEARGRLLERNGEDYICPNCTI [C11S], for which the abundance fitness was -0.92 ± 0.12.
In the case of GYDPNALYCIWRQPHNNRFMICCDRCEEWFHGDCVGISEARGRLLERNGEDYICPNCTI [C11W], the abundance fitness was -0.953 ± 0.2.
For GYDPNALYCITRQPHNNRFMICCDRCEEWFHGDCVGISEARGRLLERNGEDYICPNCTI [C11T], the abundance fitness was -0.747 ± 0.13.
In the case of GYDPNALYCICRQEHNNRFMICCDRCEEWFHGDCVGISEARGRLLERNGEDYICPNCTI [P14E], the abundance fitness stood at 0.141 ± 0.059.
On to GYDPNALYCICRQHHNNRFMICCDRCEEWFHGDCVGISEARGRLLERNGEDYICPNCTI [P14H], for which the abundance fitness is -0.04 ± 0.085.
As to GYDPNALYCICRQFHNNRFMICCDRCEEWFHGDCVGISEARGRLLERNGEDYICPNCTI [P14F], the abundance fitness is -0.084 ± 0.079.
Regarding GYDPNALYCICRQAHNNRFMICCDRCEEWFHGDCVGISEARGRLLERNGEDYICPNCTI [P14A], the abundance fitness was found to be 0.006 ± 0.067.
With GYDPNALYCICRQDHNNRFMICCDRCEEWFHGDCVGISEARGRLLERNGEDYICPNCTI [P14D] the figure was -0.284 ± 0.079.
With GYDPNALYCICRQIHNNRFMICCDRCEEWFHGDCVGISEARGRLLERNGEDYICPNCTI [P14I] the figure was -0.028 ± 0.078; with GYDPNALYCICRQGHNNRFMICCDRCEEWFHGDCVGISEARGRLLERNGEDYICPNCTI [P14G], 0.018 ± 0.046.
Regarding GYDPNALYCICWQPHNNRFMICCDRCEEWFHGDCVGISEARGRLLERNGEDYICPNCTI [R12W], the abundance fitness was -0.284 ± 0.11.
As for GYDPNALYCICTQPHNNRFMICCDRCEEWFHGDCVGISEARGRLLERNGEDYICPNCTI [R12T], the abundance fitness was -0.105 ± 0.066.
With GYDPNALYCICDQPHNNRFMICCDRCEEWFHGDCVGISEARGRLLERNGEDYICPNCTI [R12D], the abundance fitness was -0.101 ± 0.21.
As for GYDPNALYCICCQPHNNRFMICCDRCEEWFHGDCVGISEARGRLLERNGEDYICPNCTI [R12C], the abundance fitness was -0.216 ± 0.15.
With GYDPNALYCICLQPHNNRFMICCDRCEEWFHGDCVGISEARGRLLERNGEDYICPNCTI [R12L] the figure was -0.11 ± 0.056; with GYDPNALYCICYQPHNNRFMICCDRCEEWFHGDCVGISEARGRLLERNGEDYICPNCTI [R12Y], -0.296 ± 0.098.
On to GYDPNALYCICKQPHNNRFMICCDRCEEWFHGDCVGISEARGRLLERNGEDYICPNCTI [R12K], for which the abundance fitness was 0.148 ± 0.061.
Turning to GYDPNALYCICIQPHNNRFMICCDRCEEWFHGDCVGISEARGRLLERNGEDYICPNCTI [R12I], the abundance fitness is -0.48 ± 0.14.
Consider GYDPNALYCICFQPHNNRFMICCDRCEEWFHGDCVGISEARGRLLERNGEDYICPNCTI [R12F], for which the abundance fitness was -0.207 ± 0.081.
GYDPNALYCICVQPHNNRFMICCDRCEEWFHGDCVGISEARGRLLERNGEDYICPNCTI [R12V]: the abundance fitness is -0.36 ± 0.063.
Turning to GYDPNALYCICGQPHNNRFMICCDRCEEWFHGDCVGISEARGRLLERNGEDYICPNCTI [R12G], the abundance fitness was found to be 0.184 ± 0.069.
As to GYDPNALYCICAQPHNNRFMICCDRCEEWFHGDCVGISEARGRLLERNGEDYICPNCTI [R12A], the abundance fitness was -0.14 ± 0.1.
Under GYDPNALYCICEQPHNNRFMICCDRCEEWFHGDCVGISEARGRLLERNGEDYICPNCTI [R12E] stands -0.04 ± 0.094; under GYDPNALYCICPQPHNNRFMICCDRCEEWFHGDCVGISEARGRLLERNGEDYICPNCTI [R12P], -0.463 ± 0.08.
Regarding GYDPNALYCICQQPHNNRFMICCDRCEEWFHGDCVGISEARGRLLERNGEDYICPNCTI [R12Q], the abundance fitness was -0.186 ± 0.093.
Under GYDPNALYCICMQPHNNRFMICCDRCEEWFHGDCVGISEARGRLLERNGEDYICPNCTI [R12M] stands -0.305 ± 0.092.
Turning to GYDPNALYCICHQPHNNRFMICCDRCEEWFHGDCVGISEARGRLLERNGEDYICPNCTI [R12H], the abundance fitness turned out to be 0.019 ± 0.095.
Under GYDPNALYCICRHPHNNRFMICCDRCEEWFHGDCVGISEARGRLLERNGEDYICPNCTI [Q13H] stands -0.159 ± 0.2; under GYDPNALYCICRGPHNNRFMICCDRCEEWFHGDCVGISEARGRLLERNGEDYICPNCTI [Q13G], -0.233 ± 0.097.
Under GYDPNALYCICRKPHNNRFMICCDRCEEWFHGDCVGISEARGRLLERNGEDYICPNCTI [Q13K] stands -0.054 ± 0.066; under GYDPNALYCICRTPHNNRFMICCDRCEEWFHGDCVGISEARGRLLERNGEDYICPNCTI [Q13T], 0.105 ± 0.076; under GYDPNALYCICRSPHNNRFMICCDRCEEWFHGDCVGISEARGRLLERNGEDYICPNCTI [Q13S], -0.136 ± 0.052.
Consider GYDPNALYCICRVPHNNRFMICCDRCEEWFHGDCVGISEARGRLLERNGEDYICPNCTI [Q13V], for which the abundance fitness is -0.068 ± 0.041.
With GYDPNALYCICRYPHNNRFMICCDRCEEWFHGDCVGISEARGRLLERNGEDYICPNCTI [Q13Y] the figure was -0.161 ± 0.12; with GYDPNALYCICRIPHNNRFMICCDRCEEWFHGDCVGISEARGRLLERNGEDYICPNCTI [Q13I], -0.111 ± 0.072.
As for GYDPNALYCICRNPHNNRFMICCDRCEEWFHGDCVGISEARGRLLERNGEDYICPNCTI [Q13N], the abundance fitness is -0.061 ± 0.15.
GYDPNALYCICRPPHNNRFMICCDRCEEWFHGDCVGISEARGRLLERNGEDYICPNCTI [Q13P]: the abundance fitness was -0.692 ± 0.17.
With GYDPNALYCICRDPHNNRFMICCDRCEEWFHGDCVGISEARGRLLERNGEDYICPNCTI [Q13D], the abundance fitness turned out to be 0.02 ± 0.11.
Under GYDPNALYCICRRPHNNRFMICCDRCEEWFHGDCVGISEARGRLLERNGEDYICPNCTI [Q13R] stands -0.085 ± 0.072; under GYDPNALYCICRLPHNNRFMICCDRCEEWFHGDCVGISEARGRLLERNGEDYICPNCTI [Q13L], -0.089 ± 0.05; under GYDPNALYCICRAPHNNRFMICCDRCEEWFHGDCVGISEARGRLLERNGEDYICPNCTI [Q13A], 0.183 ± 0.07.
Regarding GYDPNALYCICRFPHNNRFMICCDRCEEWFHGDCVGISEARGRLLERNGEDYICPNCTI [Q13F], the abundance fitness is -0.159 ± 0.1.
Under GYDPNALYCICREPHNNRFMICCDRCEEWFHGDCVGISEARGRLLERNGEDYICPNCTI [Q13E] stands 0.072 ± 0.07; under GYDPNALYCICRMPHNNRFMICCDRCEEWFHGDCVGISEARGRLLERNGEDYICPNCTI [Q13M], 0.149 ± 0.055.
